According to IntAct's records for PubMed 25860027:

B1: Ras-related protein Rab-8A (Canis familiaris (dog)), P61007 (parent)
chain: MAKTYDYLFKLLLIGDSGVGKTCVLFRFSEDAFNSTFISTIGIDFKIRTIELDGKRIKLQIWDTAGQERFRTITTAYYRGAMGIMLVYDITNEKSFDNIRNWIRNIEEHASADVEKMILGNKCDVNDKRQVSKERGEKLALDYGIKFMETSAKANINVENAFFTLARDIKAKMDKKLEGNSPQGSNQGVKITPDQQKRSSFFRCVLL
partner: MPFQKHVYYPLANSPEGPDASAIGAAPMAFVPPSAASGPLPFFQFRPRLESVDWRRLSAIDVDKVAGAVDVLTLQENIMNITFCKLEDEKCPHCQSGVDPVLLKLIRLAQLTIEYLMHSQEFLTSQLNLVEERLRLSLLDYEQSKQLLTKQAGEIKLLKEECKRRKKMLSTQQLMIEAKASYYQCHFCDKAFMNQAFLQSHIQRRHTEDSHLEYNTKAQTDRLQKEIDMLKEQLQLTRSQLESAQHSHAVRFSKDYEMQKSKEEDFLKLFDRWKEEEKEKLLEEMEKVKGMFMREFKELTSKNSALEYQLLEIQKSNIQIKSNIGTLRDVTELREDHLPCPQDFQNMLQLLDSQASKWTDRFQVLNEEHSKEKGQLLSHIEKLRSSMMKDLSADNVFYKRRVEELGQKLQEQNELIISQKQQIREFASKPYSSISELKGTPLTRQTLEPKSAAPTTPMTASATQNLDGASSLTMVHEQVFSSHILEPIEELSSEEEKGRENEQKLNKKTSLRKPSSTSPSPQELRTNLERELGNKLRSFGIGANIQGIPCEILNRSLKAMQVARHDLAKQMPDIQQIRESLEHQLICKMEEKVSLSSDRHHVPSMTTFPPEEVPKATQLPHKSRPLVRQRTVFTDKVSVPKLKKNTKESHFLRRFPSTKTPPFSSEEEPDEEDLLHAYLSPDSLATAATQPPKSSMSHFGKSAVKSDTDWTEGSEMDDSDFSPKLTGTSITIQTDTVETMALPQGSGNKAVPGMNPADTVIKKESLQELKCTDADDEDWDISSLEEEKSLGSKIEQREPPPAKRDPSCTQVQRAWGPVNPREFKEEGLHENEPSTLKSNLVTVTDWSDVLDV
B2: Ras-related protein Rab-8A (Canis familiaris (dog)), P61007 (parent)
chain: B1 chain
partner: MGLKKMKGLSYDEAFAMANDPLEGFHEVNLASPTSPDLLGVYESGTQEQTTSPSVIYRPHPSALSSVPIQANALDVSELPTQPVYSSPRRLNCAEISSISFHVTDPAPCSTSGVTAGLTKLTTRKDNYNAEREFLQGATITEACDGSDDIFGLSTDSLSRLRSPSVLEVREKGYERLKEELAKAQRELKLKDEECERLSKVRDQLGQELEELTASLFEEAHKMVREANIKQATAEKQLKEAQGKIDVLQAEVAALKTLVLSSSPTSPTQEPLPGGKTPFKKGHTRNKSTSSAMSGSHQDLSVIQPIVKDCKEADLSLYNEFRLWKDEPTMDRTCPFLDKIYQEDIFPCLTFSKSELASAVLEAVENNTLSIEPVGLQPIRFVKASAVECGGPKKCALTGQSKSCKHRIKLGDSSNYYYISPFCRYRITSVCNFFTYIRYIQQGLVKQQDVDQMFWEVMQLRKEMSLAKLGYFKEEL

Variants of: B1
Conditions: with Dzip1, Q8BMD2-1

Row | effect of a mutation on the interaction | Variant
1 | disrupting interaction strength | MAKTYDYLFKLLLIGDSGVGKTCVLFRFSEDAFNSTFISTIGIDFKIRTIELDGKRIKLQIWDTAGLERFRTITTAYYRGAMGIMLVYDITNEKSFDNIRNWIRNIEEHASADVEKMILGNKCDVNDKRQVSKERGEKLALDYGIKFMETSAKANINVENAFFTLARDIKAKMDKKLEGNSPQGSNQGVKITPDQQKRSSFFRCVLL [Q67L]
2 | increasing interaction strength | MAKTYDYLFKLLLIGDSGVGKNCVLFRFSEDAFNSTFISTIGIDFKIRTIELDGKRIKLQIWDTAGQERFRTITTAYYRGAMGIMLVYDITNEKSFDNIRNWIRNIEEHASADVEKMILGNKCDVNDKRQVSKERGEKLALDYGIKFMETSAKANINVENAFFTLARDIKAKMDKKLEGNSPQGSNQGVKITPDQQKRSSFFRCVLL [T22N]

Variants of: B2
Conditions: with rab3i_human RAB3IP

Row | effect of a mutation on the interaction | Variant
3 | increasing interaction strength | MAKTYDYLFKLLLIGDSGVGKNCVLFRFSEDAFNSTFISTIGIDFKIRTIELDGKRIKLQIWDTAGQERFRTITTAYYRGAMGIMLVYDITNEKSFDNIRNWIRNIEEHASADVEKMILGNKCDVNDKRQVSKERGEKLALDYGIKFMETSAKANINVENAFFTLARDIKAKMDKKLEGNSPQGSNQGVKITPDQQKRSSFFRCVLL [T22N]
